Source: paper PMC6035297 (2018)
Square brackets hold non-standard residues; d marks the D form. Ends that are not written are not given here. pY = N[C@@H](Cc1ccc(OP(=O)(O)O)cc1)C(=O)O

Molecular target: T1, CTpY phosphopeptide (PLCγ1 pTyr783) 779-790 (Homo sapiens, UniProt P19174)
T1 chain: NPGF[pY]VEANPMP
Test: NMR titration

B1: PLCγ1 tandem SH2 (NSH2CSH2ΔCT) nSH2-cSH2 545-770 (protein)
chain: HSNEKWFHGKLGAGRDGRHIAERLLTEYCIETGAPDGSFLVRESETFVGDYTLSFWRNGKVQHCRIHSRQDAGTPKFFLTDNLVFDSLYDLITHYQQVPLRCNEFEMRLSEPVPQTNAHESKEWYHASLTRAQAEHMLMRVPRDGAFLVRKRNEPNSYAISFRAEGKIKHCRVQQEGQTVMLGNSEFDSLVDLISYYEKHPLYRKMKLRYPINEEALEKIGTAEPD
  Kd: < 15 µM
